Experimental findings from JP2018153172A (dated 2018) are described below.

To fix the notation:
T1: 可溶性ヒトgp130受容体 (soluble human gp130 receptor, extracellular region of SEQ ID NO 1 with six histidines) (human, UniProt P40189 23-619)
T1 construct: Secreted from CHO DG44 cells and purified on HisTrap; no cleavage site is stated; also called 可溶性ヒトgp130受容体タンパク質; ヒト可溶性gp130受容体
T1 sequence: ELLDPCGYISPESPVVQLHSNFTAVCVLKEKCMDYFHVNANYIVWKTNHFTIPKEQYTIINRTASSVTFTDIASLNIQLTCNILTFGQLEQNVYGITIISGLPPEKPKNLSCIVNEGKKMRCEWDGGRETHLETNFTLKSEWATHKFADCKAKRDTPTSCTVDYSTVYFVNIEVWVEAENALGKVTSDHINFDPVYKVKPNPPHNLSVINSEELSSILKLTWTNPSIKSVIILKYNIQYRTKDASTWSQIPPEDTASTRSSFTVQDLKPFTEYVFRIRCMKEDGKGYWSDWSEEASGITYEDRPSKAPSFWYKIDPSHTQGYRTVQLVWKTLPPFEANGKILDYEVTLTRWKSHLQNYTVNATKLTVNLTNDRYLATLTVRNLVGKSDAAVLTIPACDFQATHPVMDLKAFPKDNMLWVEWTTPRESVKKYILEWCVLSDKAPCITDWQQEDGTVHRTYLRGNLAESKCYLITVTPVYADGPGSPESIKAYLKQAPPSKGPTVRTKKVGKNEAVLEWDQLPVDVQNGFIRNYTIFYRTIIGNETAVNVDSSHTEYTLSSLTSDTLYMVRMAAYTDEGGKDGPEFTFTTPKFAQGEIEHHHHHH

B1: ヒト化抗体A AH2−AL2 (antibody, V domains shown)
VH: QVQLQQPGAELVQPGTSVRLSCKASGYTFTDYNMDWVKQRPGQGLEWIGDINSHSGGIIYNQKFKDKATLTVDKSSSTAYMQLSSLTSEDSAVYYCTRTYYVYGHFFDYWGQGTLVTVSA
VL: DIQMTQSPSSLSASVGDRVTITCNVSSSVTSMYWYQQKQGKSPQLLVYLTSNLASGVPSRFSGSGSGTQFSLKINNLQPEDFGSYYCQQWSTNPLTFGAGTKLDLK
notes: VH on human IgG1 constant region (pFUSEss-CHIg-hG1), VL on human kappa constant region (pFUSE2ss-CLIg-hk); also called AH2-AL2
B2: ヒト化抗体A AH2−AL8 (antibody, V domains shown)
VH: B1 VH
VL: ELVLTQSPGTLSLSAGERATLSCNVSSSVTSMYWYQQKPGKAPKLLIYLTSNLASGAPSRFSGSGSGTDFTLTISSLQPDDFATYYCQQWSTNPLTFGGGTKLEIK
notes: VH on human IgG1 constant region (pFUSEss-CHIg-hG1), VL on human kappa constant region (pFUSE2ss-CLIg-hk); also called AH2-AL8
B3: ヒト化抗体A AH2−AL6 (antibody, V domains shown)
VH: B1 VH
VL: EIVLTQSPATLSLSPGERATLSCNVSSSVTSMYWYQQKPGQAPRLLIYLTSNLASGIPDRFSGSGSGTDFTLTISRLEPEDFAVYYCQQWSTNPLTFGQGTKVEIK
notes: VH on human IgG1 constant region (pFUSEss-CHIg-hG1), VL on human kappa constant region (pFUSE2ss-CLIg-hk); also called AH2-AL6
B4: ヒト化抗体A AH7−AL2 (antibody, V domains shown)
VH: EVQLVQSGAEVKKPGATVKISCKASGYTFTDYNMDWVRQAPGQGLEWIGDINSHSGGIIYNQKFKDWVTMTRDTSINTAYMELRLRSDDTAVYYCARTYYVYGHFFDYWGQGTLVTVSA
VL: B1 VL
notes: VH on human IgG1 constant region (pFUSEss-CHIg-hG1), VL on human kappa constant region (pFUSE2ss-CLIg-hk); also called AH7-AL2
B5: ヒト化抗体A AH7−AL1 (antibody, V domains shown)
VH: B4 VH
VL: DIQMTQSPSSLSASVGDRVTITCNVSSSVTSMYWYQQKPGKAPKLLIYLTSNLASGVPARFSGSGSGTEFTLTISSLQPDDFATYYCQQWSTNPLTFGAGTKLDLK
notes: VH on human IgG1 constant region (pFUSEss-CHIg-hG1), VL on human kappa constant region (pFUSE2ss-CLIg-hk); also called AH7-AL1
B6: ヒト化抗体A AH7−AL6 (antibody, V domains shown)
VH: B4 VH
VL: B3 VL
notes: VH on human IgG1 constant region (pFUSEss-CHIg-hG1), VL on human kappa constant region (pFUSE2ss-CLIg-hk); also called AH7-AL6
B7: ヒト化抗体A AH7−AL4 (antibody, V domains shown)
VH: B4 VH
VL: DIQMTQSPSSLSASVGDRVTITCNVSSSVTSMYWYQQKQGKSPQLLVYLTSNLASGVPSRFSGSGSGTDFTLTISSLQPEDFATYYCQQWSTNPLTFGQGTKVEIK
notes: VH on human IgG1 constant region (pFUSEss-CHIg-hG1), VL on human kappa constant region (pFUSE2ss-CLIg-hk); also called AH7-AL4
B8: ヒト化抗体A AH7−AL5 (antibody, V domains shown)
VH: B4 VH
VL: B5 VL with S9A, D17E, R18T
notes: VH on human IgG1 constant region (pFUSEss-CHIg-hG1), VL on human kappa constant region (pFUSE2ss-CLIg-hk); also called AH7-AL5
B9: ヒト化抗体A AH7−AL3 (antibody, V domains shown)
VH: B4 VH
VL: B5 VL with S10T, A99Q, L103V, D104E, L105V
notes: VH on human IgG1 constant region (pFUSEss-CHIg-hG1), VL on human kappa constant region (pFUSE2ss-CLIg-hk); also called AH7-AL3
B10: ヒト化抗体A AH4−AL7 (antibody, V domains shown)
VH: QVQLVQSGAEVKKPGSSVKVSCKASGYTFTDYNMDWVRQAPGQGLEWMGDINSHSGGIIYNQKFKDRVTITADESTSTAYMELSSLRSEDTAVYYCARTYYVYGHFFDYWGQGTLVTVSS
VL: DIQMTQSPSTLSASIGDRVTITCNVSSSVTSMYWFQQRPGQAPKVLIYLTSNLASGVPSRFSGSGSGTDFTFTISSLQPEDIATYYCQQWSTNPLTFGGGTKVDIK
notes: VH on human IgG1 constant region (pFUSEss-CHIg-hG1), VL on human kappa constant region (pFUSE2ss-CLIg-hk); also called AH4-AL7
B11: ヒト化抗体A AH5−AL1 (antibody, V domains shown)
VH: B10 VH with Q1E, A9P, V11L, S16A, R38K, A40R, M48I, S84T, R87T, T117S
VL: B5 VL
notes: VH on human IgG1 constant region (pFUSEss-CHIg-hG1), VL on human kappa constant region (pFUSE2ss-CLIg-hk); also called AH5-AL1
B12: ヒト化抗体A AH3−AL1 (antibody, V domains shown)
VH: B10 VH with S16A, M48I, R67K, V68A, I70M, A72V, E74T, S77N
VL: B5 VL
notes: VH on human IgG1 constant region (pFUSEss-CHIg-hG1), VL on human kappa constant region (pFUSE2ss-CLIg-hk); also called AH3-AL1
B13: ヒト化抗体A AH3−AL6 (antibody, V domains shown)
VH: B10 VH with S16A, M48I, R67K, V68A, I70M, A72V, E74T, S77N
VL: B3 VL
notes: VH on human IgG1 constant region (pFUSEss-CHIg-hG1), VL on human kappa constant region (pFUSE2ss-CLIg-hk); also called AH3-AL6
B14: ヒト化抗体A AH2−AL7 (antibody, V domains shown)
VH: B1 VH
VL: B10 VL
notes: VH on human IgG1 constant region (pFUSEss-CHIg-hG1), VL on human kappa constant region (pFUSE2ss-CLIg-hk); also called AH2-AL7
B15: ヒト化抗体A AH7−AL7 (antibody, V domains shown)
VH: B4 VH
VL: B10 VL
notes: VH on human IgG1 constant region (pFUSEss-CHIg-hG1), VL on human kappa constant region (pFUSE2ss-CLIg-hk); also called AH7-AL7
B16: ヒト化抗体A AH3−AL2 (antibody, V domains shown)
VH: B10 VH with S16A, M48I, R67K, V68A, I70M, A72V, E74T, S77N
VL: B1 VL
notes: VH on human IgG1 constant region (pFUSEss-CHIg-hG1), VL on human kappa constant region (pFUSE2ss-CLIg-hk); also called AH3-AL2
B17: ヒト化抗体A AH5−AL3 (antibody, V domains shown)
VH: B10 VH with Q1E, A9P, V11L, S16A, R38K, A40R, M48I, S84T, R87T, T117S
VL: B5 VL with S10T, A99Q, L103V, D104E, L105V
notes: VH on human IgG1 constant region (pFUSEss-CHIg-hG1), VL on human kappa constant region (pFUSE2ss-CLIg-hk); also called AH5-AL3
B18: ヒト化抗体A AH6−AL7 (antibody, V domains shown)
VH: B10 VH with S16A, M48I, S84T, R87T, L115T
VL: B10 VL
notes: VH on human IgG1 constant region (pFUSEss-CHIg-hG1), VL on human kappa constant region (pFUSE2ss-CLIg-hk); also called AH6-AL7
B19: ヒト化抗体A AH3−AL4 (antibody, V domains shown)
VH: B10 VH with S16A, M48I, R67K, V68A, I70M, A72V, E74T, S77N
VL: B7 VL
notes: VH on human IgG1 constant region (pFUSEss-CHIg-hG1), VL on human kappa constant region (pFUSE2ss-CLIg-hk); also called AH3-AL4
B20: ヒト化抗体A AH5−AL5 (antibody, V domains shown)
VH: B10 VH with Q1E, A9P, V11L, S16A, R38K, A40R, M48I, S84T, R87T, T117S
VL: B5 VL with S9A, D17E, R18T
notes: VH on human IgG1 constant region (pFUSEss-CHIg-hG1), VL on human kappa constant region (pFUSE2ss-CLIg-hk); also called AH5-AL5
B21: ヒト化抗体A AH3−AL7 (antibody, V domains shown)
VH: B10 VH with S16A, M48I, R67K, V68A, I70M, A72V, E74T, S77N
VL: B10 VL
notes: VH on human IgG1 constant region (pFUSEss-CHIg-hG1), VL on human kappa constant region (pFUSE2ss-CLIg-hk); also called AH3-AL7
B22: ヒト化抗体A AH8−AL7 (antibody, V domains shown)
VH: B10 VH with Q1E, S16A, Q43K, M48V, E74R, A79V, S85G, Q112K
VL: B10 VL
notes: VH on human IgG1 constant region (pFUSEss-CHIg-hG1), VL on human kappa constant region (pFUSE2ss-CLIg-hk); also called AH8-AL7
B23: ヒト化抗体A AH3−AL5 (antibody, V domains shown)
VH: B10 VH with S16A, M48I, R67K, V68A, I70M, A72V, E74T, S77N
VL: B5 VL with S9A, D17E, R18T
notes: VH on human IgG1 constant region (pFUSEss-CHIg-hG1), VL on human kappa constant region (pFUSE2ss-CLIg-hk); also called AH3-AL5
B24: ヒト化抗体A AH5−AL7 (antibody, V domains shown)
VH: B10 VH with Q1E, A9P, V11L, S16A, R38K, A40R, M48I, S84T, R87T, T117S
VL: B10 VL
notes: VH on human IgG1 constant region (pFUSEss-CHIg-hG1), VL on human kappa constant region (pFUSE2ss-CLIg-hk); also called AH5-AL7
B25: ヒト化抗体A AH8−AL1 (antibody, V domains shown)
VH: B10 VH with Q1E, S16A, Q43K, M48V, E74R, A79V, S85G, Q112K
VL: B5 VL
notes: VH on human IgG1 constant region (pFUSEss-CHIg-hG1), VL on human kappa constant region (pFUSE2ss-CLIg-hk); also called AH8-AL1
B26: ヒト化抗体A AH1−AL7 (antibody, V domains shown)
VH: B10 VH with Q1E, M48I, R67K, V68A, S77N, L115T, V116L
VL: B10 VL
notes: VH on human IgG1 constant region (pFUSEss-CHIg-hG1), VL on human kappa constant region (pFUSE2ss-CLIg-hk); also called AH1-AL7
B27: ヒト化抗体A AH3−AL3 (antibody, V domains shown)
VH: B10 VH with S16A, M48I, R67K, V68A, I70M, A72V, E74T, S77N
VL: B5 VL with S10T, A99Q, L103V, D104E, L105V
notes: VH on human IgG1 constant region (pFUSEss-CHIg-hG1), VL on human kappa constant region (pFUSE2ss-CLIg-hk); also called AH3-AL3
B28: ヒト化抗体A AH5−AL4 (antibody, V domains shown)
VH: B10 VH with Q1E, A9P, V11L, S16A, R38K, A40R, M48I, S84T, R87T, T117S
VL: B7 VL
notes: VH on human IgG1 constant region (pFUSEss-CHIg-hG1), VL on human kappa constant region (pFUSE2ss-CLIg-hk); also called AH5-AL4

Residue numbers refer to the chain shown, from its start.

This assay addresses T1, 可溶性ヒトgp130受容体 (soluble human gp130 …). Briefly: ELISA, immobilised soluble human gp130, COS1 supernatant, anti-human antibody-HRP. On the technique in general: An ELISA detects its analyte on a solid surface through an enzyme-linked reagent.
As to B1, the binding result is given as “binds”.

Turning to B2, the binding result is on record as “binds”. As for B3, the binding result was “binds”.

Consider B4, for which the binding result is reported as “binds”.

Take B5: the binding result is recorded as “binds”. As for B6, the binding result was “binds”. As to B7, the binding result is “binds”. Regarding B8, the binding result was “binds”. As to B9, the binding result is “binds”.

For B10, the binding result is “binds”. As to B11, the binding result was “binds”. With B12 the entry was “binds”; with B13, “binds”. With B14 the entry was “binds”. In the case of B15, the binding result is “binds”. As to B16, the binding result was “binds”.

For B17, the binding result is “binds”. In the case of B18, the binding result is reported as “binds”.

Turning to B19, the binding result is reported as “binds”. With B20 the entry was “binds”; with B21, “binds”; with B22, “binds”.

Turning to B23, the binding result was “binds”. With B24, the binding result is “binds”. Regarding B25, the binding result is listed as “binds”. Consider B26, for which the binding result was “binds”. Regarding B27, the binding result is “binds”. With B28 the entry was “binds”.
